Laboratory results reported in the supplement of paper PMC10724198.
± gives the standard deviation of the averaged measurements.

System: Saccharomyces cerevisiae
Test: protein stability index of tFT-peptide fusion (C-terminal peptide) (PSI (0-1 scale)); higher = more stable (slower turnover)
Details: genetic background: wild type; temperature: 30 C
Description: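 Multiplexed protein stability (MPS) profiling in S. cerevisiae. Random 12-aa peptides (tFT-X12 library) are fused to the C-terminus of a sfGFP-mCherry tandem fluorescent timer, after mCherry and a GGGS linker. Cells are FACS-sorted into 8 mCherry/sfGFP bins and deep-sequenced. The protein stability index (PSI) is the read-weighted bin average, scaled from 0 (unstable) to 1 (stable). Only peptides with >10 reads are reported; cells were grown at 30 °C in SC-His with glucose.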
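Also: PSI is a weighted mean of sequencing reads over stability bins, variants kept only with over 10 reads, mCherry proximal and sfGFP distal, peptide attached via GGGS linker.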

Sequence: MPARGLAWLPVS
- protein stability index: 0.654 ± 0.064

Sequence: SWVGHGIPPWHM
- protein stability index: 0.729 ± 0.027

Sequence: PSCYDPCSPPPH
- protein stability index: 0.723 ± 0.047

Sequence: HVPGKWTLGFGI
- protein stability index: 0.761 ± 0.054

Sequence: SKKKRQNQLIKM
- protein stability index: 0.7527 ± 0.0032

Sequence: VSYEGIVKDGSG
- protein stability index: 0.647 ± 0.083

Sequence: CLRPGAPESSIP
- protein stability index: 0.673 ± 0.1

Sequence: SYRNRTEHPKLP
- protein stability index: 0.74 ± 0.036

Sequence: RRGYSNCMTLWI
- protein stability index: 0.702 ± 0.049

Sequence: PHPSLPGPFPHP
- protein stability index: 0.7049 ± 0.0045

Sequence: RNKKKKEKKKVE
- protein stability index: 0.693 ± 0.038

Sequence: LLPPPPTPPLNL
- protein stability index: 0.688 ± 0.033

Sequence: YGGSLLNVFGLG
- protein stability index: 0.645 ± 0.0078

Sequence: APDRPTPSLSSP
- protein stability index: 0.7057 ± 0.0053

Sequence: GGGGGWGGAGGV
- protein stability index: 0.737 ± 0.048

Sequence: PHPSAAPPPNPP
- protein stability index: 0.759 ± 0.062

Sequence: YGIGVRMPRSYW
- protein stability index: 0.709 ± 0.035

Sequence: PCGLRLAFRLSL
- protein stability index: 0.619 ± 0.038

Sequence: GPPAGGTARSPM
- protein stability index: 0.694 ± 0.029

Sequence: AWGGGEWGGCGR
- protein stability index: 0.772 ± 0.027

Sequence: WEQQTSLPLLSL
- protein stability index: 0.712 ± 0.021

Sequence: LCYLPLTLPPVL
- protein stability index: 0.582 ± 0.036

Sequence: GGALNGVGNGEL
- protein stability index: 0.67 ± 0.053

Sequence: SECLCVRDRCGG
- protein stability index: 0.685 ± 0.078

Sequence: NNNKKKDDNIDM
- protein stability index: 0.618 ± 0.079

Sequence: KKKNNRITVFKV
- protein stability index: 0.636 ± 0.067

Sequence: GGGVWWGGWGHW
- protein stability index: 0.73 ± 0.061

Sequence: WTDHISEHLHTV
- protein stability index: 0.742 ± 0.039

Sequence: WVCRGSSLKSSI
- protein stability index: 0.677 ± 0.058

Sequence: WGFVCWGCGGCS
- protein stability index: 0.746 ± 0.028

Sequence: AAIVVRLCSLLR
- protein stability index: 0.593 ± 0.0091

Sequence: RKTPIKTKKSAR
- protein stability index: 0.687 ± 0.09

Sequence: DMTVICDVAGQT
- protein stability index: 0.652 ± 0.019

Sequence: PYPPRPATPRPP
- protein stability index: 0.682 ± 0.018

Sequence: YCTMHLQLLQHS
- protein stability index: 0.578 ± 0.012

Sequence: WGEGCGSSEEGE
- protein stability index: 0.695 ± 0.087

Sequence: VQPAGLEFGPLS
- protein stability index: 0.6457 ± 0.0015

Sequence: KIKKRRKKDNKR
- protein stability index: 0.7145 ± 0.0013

Sequence: LLLALPSRPPPS
- protein stability index: 0.666 ± 0.13

Sequence: VRSLLGLPLPGL
- protein stability index: 0.788 ± 0.041

Sequence: KKKKQRKQEKKI
- protein stability index: 0.642 ± 0.008

Sequence: SLVPFSPPRSPP
- protein stability index: 0.689 ± 0.083

Sequence: WLCGSIGHAMLG
- protein stability index: 0.739 ± 0.062

Sequence: LPSPRRPPTPSA
- protein stability index: 0.657 ± 0.015

Sequence: APPLPPPPLDTS
- protein stability index: 0.729 ± 0.011

Sequence: SLCWDVLFLPVV
- protein stability index: 0.736 ± 0.064

Sequence: TVLTDKKGRVRS
- protein stability index: 0.71 ± 0.0093

Sequence: WSAPHPVCSPPS
- protein stability index: 0.697 ± 0.0093

Sequence: SPLLVLTPLFPP
- protein stability index: 0.651 ± 0.074

Sequence: SRYRSTSESMKV
- protein stability index: 0.667 ± 0.038

Sequence: RYASSRTLFAAV
- protein stability index: 0.672 ± 0.069

Sequence: GCWAFGWLLQYS
- protein stability index: 0.574 ± 0.014

Sequence: SGEVSYVYVGNK
- protein stability index: 0.6553 ± 0.0011

Sequence: ELLTVQLHKAAR
- protein stability index: 0.706 ± 0.0076

Sequence: DQVGWVAGVDAR
- protein stability index: 0.707 ± 0.048

Sequence: VGSPPVWAAVWG
- protein stability index: 0.614 ± 0.12

Sequence: IHLGVLTAFGLS
- protein stability index: 0.701 ± 0.032

Sequence: RGLGGWAECGRW
- protein stability index: 0.76 ± 0.05

Sequence: DPHRTRPRITLP
- protein stability index: 0.715 ± 0.044

Sequence: KREKKNTYIKKV
- protein stability index: 0.671 ± 0.04

Sequence: KREQKPHPKLKL
- protein stability index: 0.5682 ± 0.0021

Sequence: WSSCISCLLRGV
- protein stability index: 0.688 ± 0.066

Sequence: AFYFGQFEFWRC
- protein stability index: 0.698 ± 0.034

Sequence: WLFRGELCGGAN
- protein stability index: 0.588 ± 0.014

Sequence: ALLPTLFNSGAV
- protein stability index: 0.736 ± 0.015

Sequence: FTPSSLRGSLLA
- protein stability index: 0.687 ± 0.021

Sequence: AHMAQQNEQRVK
- protein stability index: 0.748 ± 0.071

Sequence: RPPAPVFPNFPG
- protein stability index: 0.708 ± 0.022

Sequence: RVEITGVAVTRC
- protein stability index: 0.642 ± 0.0082

Sequence: GGCGAKWLSGGG
- protein stability index: 0.64 ± 0.025

Sequence: PPPPLLPSPFPP
- protein stability index: 0.653 ± 0.031

Sequence: QSCQSKGSEVGE
- protein stability index: 0.696 ± 0.054

Sequence: AWGSVVTFLGLR
- protein stability index: 0.737 ± 0.054

Sequence: KKRKKKKQTKRK
- protein stability index: 0.691 ± 0.022

Sequence: PPRHPSPGLVPT
- protein stability index: 0.722 ± 0.04

Sequence: CGTVVISGIVWR
- protein stability index: 0.647 ± 0.04

Sequence: APRRVAVAGETS
- protein stability index: 0.707 ± 0.043

Sequence: IKKKTTKTKIKK
- protein stability index: 0.741 ± 0.031

Sequence: LKRMQKYIDMSS
- protein stability index: 0.714 ± 0.11

Sequence: LLPAPLPTALPL
- protein stability index: 0.65 ± 0.07

Sequence: PVLFSPPSPFFP
- protein stability index: 0.708 ± 0.083

Sequence: LCILIFLFRCIL
- protein stability index: 0.551 ± 0.036

Sequence: GKGGITGWCCHH
- protein stability index: 0.648 ± 0.04

Sequence: ARLHMSLFRPPA
- protein stability index: 0.646 ± 0.011

Sequence: SCARARFAPHHS
- protein stability index: 0.734 ± 0.0092

Sequence: VRLHVPLQRFMK
- protein stability index: 0.73 ± 0.029

Sequence: PPPSPAPCPPSS
- protein stability index: 0.777 ± 0.043

Sequence: RRLDGDLSPPIR
- protein stability index: 0.664 ± 0.095

Sequence: PLLPSPAPLHPP
- protein stability index: 0.583 ± 0.044

Sequence: MESIIHPNSGIV
- protein stability index: 0.744 ± 0.13

Sequence: GVWEGLQLGLIS
- protein stability index: 0.7826 ± 0.0032

Sequence: SSPPFPPSPPLP
- protein stability index: 0.695 ± 0.012

Sequence: GRGACHSRGNQP
- protein stability index: 0.668 ± 0.014

Sequence: LCGLDCLLRPCY
- protein stability index: 0.681 ± 0.011

Sequence: GRNIIARLNNMT
- protein stability index: 0.5748 ± 0.0047

Sequence: FRMLSRMKEILD
- protein stability index: 0.634 ± 0.052

Sequence: TVGSVAREGPFW
- protein stability index: 0.696 ± 0.025

Sequence: LSASAWCSSLTR
- protein stability index: 0.714 ± 0.047
